The text below walks through data of patent US7718413B2, “Glycosylation variants of BACE” (Elan Pharmaceuticals, Inc., priority 2003, dated 2010).

This data set deals with MBP-C125Swe. As to the kind of experiment: β-Secretase assay: cleavage of substrate MBP-C125Swe, ELISA read-out. The conditions noted are these: 0.02 μL BACE, MBP-C125Swe 220 nM, one hour, 37° C., pH 4.5; for Cleavage Product: group mean of 6 samples; for Activity / Substrate Conversion: group mean. Type of data set: biochemical. An excerpt:
Peptide substrate MBP-C125Swe was used for all assays. MBP-C125Swe is a bacterial fusion protein containing maltose binding protein MBP fused to the C-terminal 125 amino acids of the Swedish variant (Lys670Asn, Met671Leu double mutation) of APP. Sinha et al (1999). The C-terminal 125 amino acids were cloned into the expression vector pMALc (New England Biolabs) and transfected into E. coli. The fusion proteins were induced and solubilized by sonication of the pelleted bacteria. The proteins were purified by affinity chromatography on amylose-agarose, made up to 3 M guanidine, and stored in 10 mM Tris, pH 7.5, 0.2% Triton X-100, and 0.15 M guanidine.
All digests were done with 0.02 μL BACE (Δ3, 0.69 μM; Δ2,3 0.77 μM; wild type 0.66 μM) at 37° C. in a total volume of 50 μL 0.06% Triton X-100 and 20 mM sodium acetate, pH 4.5. Samples were incubated with MBP-C125Swe substrate (10 μg/mL, 220 nM) for one hour. Digests were assayed in an ELISA assay, capturing with antibody to MBP and detecting with biotinylated Sw192, a neo-epitope specific antibody recognizing the free C-terminal leucine of the N-terminal product of β-secretase cleavage of the APPSwe sequence. See Seubert. P. et al. Nature 361:260-263 (1993), and Knops, J. et al. J. Biol. Chem. 270:2419-2422 (1995). Product was allowed to bind for 24 hours at 4° C., then quantitated with streptavidin-horse radish peroxidase. Biotinylated peptide corresponding to the N-terminal cleavage product was synthesized and used as a standard.
These values were converted from the above data by the following equation: nM product/hr (ng enzyme)×45 ng enzyme/pm enz× 1/220 nM substrate×⅓,660 sec/hr×50,000 nL/reaction.

Where “and” joins values, the source holds several entries; their conditions need not be identical. Equal values may be shown once.

B1: delta 2, 3: BACE variant S174I and N223A (SEQ ID NO:3), made on the 452Flag soluble truncated BACE template (protein)
chain: ETDEEPEEPGRRGSFVEMVDNLRGKSGQGYYVEMTVGSPPQTLNILVDTGSSNFAVGAAPHPFLHRYYQRQLSSTYRDLRKGVYVPYTQGKWEGELGTDLVSIPHGPNVTVRANIAAITESDKFFINGINWEGILGLAYAEIARPDDSLEPFFDSLVKQTHVPNLFSLQLCGAGFPLAQSEVLASVGGSMIIGGIDHSLYTGSLWYTPIRREWYYEVIIVRVEINGQDLKMDCKEYNYDKSIVDSGTTNLRLPKKVFEAAVKSIKAASSTEKFPDGFWLGEQLVCWQAGTTPWNIFPVISLYLMGEVTNQSFRITILPQQYLRPVEDVATSQDDCYKFAISQSSTGTVMGAVIMEGFYVVFDRARKRIGFAVSACHVHDEFRTAAVEGPFVTLDMEDCGYNIPQTD
modifications: Flag tag; Human BACE with serine to isoleucine (S174I) and asparagine to alanine (N223A) mutations.
For B1, the “Cleavage Product” value was 109 pM and 108 pM; the Activity is 15,753 pM/h/ng enz and 15,662 pM/h/ng enz; the “Substrate Conversion” value was 5.19% and 5.16%.

B2: delta 3: BACE variant N223A (SEQ ID NO:2), made on the 452Flag soluble truncated BACE template (protein)
chain: ETDEEPEEPGRRGSFVEMVDNLRGKSGQGYYVEMTVGSPPQTLNILVDTGSSNFAVGAAPHPFLHRYYQRQLSSTYRDLRKGVYVPYTQGKWEGELGTDLVSIPHGPNVTVRANIAAITESDKFFINGSNWEGILGLAYAEIARPDDSLEPFFDSLVKQTHVPNLFSLQLCGAGFPLAQSEVLASVGGSMIIGGIDHSLYTGSLWYTPIRREWYYEVIIVRVEINGQDLKMDCKEYNYDKSIVDSGTTNLRLPKKVFEAAVKSIKAASSTEKFPDGFWLGEQLVCWQAGTTPWNIFPVISLYLMGEVTNQSFRITILPQQYLRPVEDVATSQDDCYKFAISQSSTGTVMGAVIMEGFYVVFDRARKRIGFAVSACHVHDEFRTAAVEGPFVTLDMEDCGYNIPQTD
modifications: Flag tag; Human BACE with asparagine to alanine (N223A) mutation.
Regarding B2, the “Cleavage Product” value was 119 pM and 126 pM; the Activity is 19,071 pM/h/ng enz and 20,173 pM/h/ng enz; the “Substrate Conversion” value is 5.68% and 6.01%.

B3: wild type: fully glycosylated soluble BACE truncated after residue 451 with Flag sequence (protein)
chain: TQHGIRLPLRSGLGGAPLGLRLPRETDEEPEEPGRRGSFVEMVDNLRGKSGQGYYVEMTVGSPPQTLNILVDTGSSNFAVGAAPHPFLHRYYQRQLSSTYRDLRKGVYVPYTQGKWEGELGTDLVSIPHGPNVTVRANIAAITESDKFFINGSNWEGILGLAYAEIARPDDSLEPFFDSLVKQTHVPNLFSLQLCGAGFPLNQSEVLASVGGSMIIGGIDHSLYTGSLWYTPIRREWYYEVIIVRVEINGQDLKMDCKEYNYDKSIVDSGTTNLRLPKKVFEAAVKSIKAASSTEKFPDGFWLGEQLVCWQAGTTPWNIFPVISLYLMGEVTNQSFRITILPQQYLRPVEDVATSQDDCYKFAISQSSTGTVMGAVIMEGFYVVFDRARKRIGFAVSACHVHDEFRTAAVEGPFVTLDMEDCGYNIPQTD
modifications: left off: small tags and cut ends
For B3, the “Cleavage Product” value was 85 pM and 90 pM; the Activity was 14,308 pM/h/ng enz and 15,177 pM/h/ng enz; the “Substrate Conversion” value was 4.05% and 4.30%.
